Reference: publication PMC11919701

Key:
[1] = target: GFP-fused CtMrs2 106-539 E374R (Chaetomium thermophilum); test: SEC; purified GFP-fused CtMrs2 forms used for the limited proteolysis assay; final SEC buffer as buffer A but pH 8.0, DDM
[2] = target: CtMrs2 106-539 in MSP1D1/POPC nanodiscs, open-state sample prepared with EDTA (Chaetomium thermophilum); test: cryo-EM structure; open state: MSP1D1/POPC nanodiscs, 50 mM HEPES pH 7.5, 100 mM NaCl, 2 mM EDTA, 1 mM fluorinated Fos-choline-8; C1 and C5 maps
[3] = target: GFP-fused CtMrs2 (His10-GFP-G4S-TEV-CtMrs2 106-539), wild type (Chaetomium thermophilum); test: native gel or EMSA; Coomassie-stained blue native PAGE of purified detergent-solubilised GFP-fused CtMrs2
[4] = target: GFP-fused CtMrs2 (His10-GFP-G4S-TEV-CtMrs2 106-539), wild type (Chaetomium thermophilum); test: SEC; detergent-solubilised GFP-fused CtMrs2 on Superose 6; buffer A (50 mM HEPES-NaOH pH 7.5, 150 mM NaCl, 10% glycerol) with 0.05% DDM and 2 mM MgCl2
[5] = target: GFP-fused CtMrs2 (His10-GFP-G4S-TEV-CtMrs2 106-539), wild type (Chaetomium thermophilum); test: SEC; purified GFP-fused CtMrs2 forms used for the limited proteolysis assay; final SEC buffer as buffer A but pH 8.0, DDM
[6] = target: GFP-fused CtMrs2 106-539 S328A;T329A (Chaetomium thermophilum); test: as above
[7] = target: GFP-fused CtMrs2 106-539 E374A;E378A (Chaetomium thermophilum); test: as above
[8] = target: CtMrs2 106-539 lacking GFP (TEV-cleaved), in MSP1D1/POPC nanodiscs, closed-state sample with Mg2+ (Chaetomium thermophilum); test: cryo-EM structure; closed state: MSP1D1/POPC nanodiscs, 50 mM HEPES-Na pH 7.5, 100 mM NaCl, 2 mM MgCl2 plus additional 10 mM MgCl2; C1 and C5 maps
[9] = target: GFP-fused CtMrs2 106-539 S396A;S397A (Chaetomium thermophilum); test: SEC; purified GFP-fused CtMrs2 forms used for the limited proteolysis assay; final SEC buffer as buffer A but pH 8.0, DDM

Work on “GFP-fused CtMrs2 106-539 E374R (natural protein)” yielded a stoichiometry N [1] of 5.

“CtMrs2 106-539 in MSP1D1/POPC nanodiscs, open-state sample prepared with EDTA (natural protein)” was tested, and the stoichiometry N [2] was 5.

In the case of “GFP-fused CtMrs2 (His10-GFP-G4S-TEV-CtMrs2 106-539), wild type (natural protein)”, the stoichiometry N [3] was 5, the stoichiometry N [4] was 5 and the stoichiometry N [5] was 5.

With “GFP-fused CtMrs2 106-539 S328A;T329A (natural protein)” the stoichiometry N [6] was 5.

Work on “GFP-fused CtMrs2 106-539 E374A;E378A (natural protein)” yielded a stoichiometry N [7] of 5.

“CtMrs2 106-539 lacking GFP (TEV-cleaved), in MSP1D1/POPC nanodiscs, closed-state sample with Mg2+ (natural protein)” gave a stoichiometry N [8] of 5.

With “GFP-fused CtMrs2 106-539 S396A;S397A (natural protein)” the stoichiometry N [9] was 5.
